According to patent publication US20220363770A1 (Amgen, published 2022):

T1: human PAC1 receptor on SH-SY5Y (CRL-2266) cells (human, UniProt P41586 24-468)
T1 sequence: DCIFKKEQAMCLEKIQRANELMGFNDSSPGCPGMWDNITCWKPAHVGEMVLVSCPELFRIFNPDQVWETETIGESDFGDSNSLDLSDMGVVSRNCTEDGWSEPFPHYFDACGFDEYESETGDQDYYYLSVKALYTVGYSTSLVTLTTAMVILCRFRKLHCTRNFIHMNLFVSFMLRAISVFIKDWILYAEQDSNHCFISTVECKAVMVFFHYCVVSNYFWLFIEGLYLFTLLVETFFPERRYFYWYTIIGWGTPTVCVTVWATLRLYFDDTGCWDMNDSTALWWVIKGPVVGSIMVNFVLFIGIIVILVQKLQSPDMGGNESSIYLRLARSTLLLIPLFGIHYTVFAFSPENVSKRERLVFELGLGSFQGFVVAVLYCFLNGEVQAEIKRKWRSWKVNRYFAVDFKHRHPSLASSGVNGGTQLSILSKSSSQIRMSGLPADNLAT


Columns and labels:
[1] = target: T2, soluble CGRP receptor (ECDs of human CRLR and human RAMP1) (human, UniProt Q16602 23-133; O60894 26-117); test: SPR (Biacore T200), antibody captured, soluble CGRP receptor as analyte
T2 construct: complex treated with thrombin before crystallization; also called soluble human CGRP receptor; CRLR ECD/RAMP1 ECD heterodimer
T2 sequence (Q16602 23-133, chain 1 of 2): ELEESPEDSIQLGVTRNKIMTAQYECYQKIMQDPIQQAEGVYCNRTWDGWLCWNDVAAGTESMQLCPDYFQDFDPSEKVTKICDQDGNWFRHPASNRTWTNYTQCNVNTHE
T2 sequence (O60894 26-117, chain 2 of 2): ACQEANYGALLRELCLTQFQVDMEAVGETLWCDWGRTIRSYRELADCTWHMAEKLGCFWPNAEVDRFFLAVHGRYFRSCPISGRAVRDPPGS

[2] = target: T1, human PAC1 receptor on SH-SY5Y …; test: cell-based or functional assay
[3] = target: human CGRP receptor (human CRLR / human RAMP1 heterodimer) on SK-N-MC (HTB-10) cells (human, UniProt Q16602 23-461; O60894 27-148); test: cell-based or functional assay
Chain of human CGRP receptor (human CRLR / human RAMP1 heterodimer) on SK-N-MC (HTB-10) cells (Q16602 23-461 limits assumed, chain 1 of 2): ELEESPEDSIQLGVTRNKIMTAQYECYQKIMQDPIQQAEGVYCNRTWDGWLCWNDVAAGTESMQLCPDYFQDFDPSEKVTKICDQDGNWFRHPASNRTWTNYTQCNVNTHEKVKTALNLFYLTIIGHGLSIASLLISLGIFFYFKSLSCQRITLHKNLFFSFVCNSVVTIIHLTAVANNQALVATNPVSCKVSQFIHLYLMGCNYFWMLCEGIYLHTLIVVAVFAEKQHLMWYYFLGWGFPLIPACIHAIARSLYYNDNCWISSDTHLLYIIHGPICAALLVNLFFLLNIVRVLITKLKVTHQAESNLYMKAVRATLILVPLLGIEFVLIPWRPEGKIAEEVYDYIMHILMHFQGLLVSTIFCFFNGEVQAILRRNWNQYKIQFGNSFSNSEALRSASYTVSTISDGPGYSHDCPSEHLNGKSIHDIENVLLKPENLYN
Chain of human CGRP receptor (human CRLR / human RAMP1 heterodimer) on SK-N-MC (HTB-10) cells (O60894 27-148 limits assumed, chain 2 of 2): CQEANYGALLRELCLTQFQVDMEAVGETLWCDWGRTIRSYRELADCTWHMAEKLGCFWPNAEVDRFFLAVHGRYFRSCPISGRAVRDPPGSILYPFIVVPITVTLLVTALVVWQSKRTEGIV

Binder | fold faster dissociation rate against wild-type 4E4 [1] [fold] | Fold-improvement over 29G4v22 Ab (human PAC1 receptor IC50) [2] [fold] | Human PAC1 Receptor IC50 (nM), cell-based cAMP assay [2] [nM] | Fold-improvement over 4E4 Ab (human CGRP receptor IC50) [3] [fold] | Human CGRP Receptor IC50 (nM), cell-based cAMP assay [3] [nM]
4E4 single-point alanine variant antibody H_D54A (antibody, V domains shown, Recombinantly expressed as monoclonal antibody; also called CDRH2 D54A antibody variant) VH: QVQLVESGGGVVQPGRSLRLSCAASGFTFSSFGMHWVRQAPGKGLEWVAVISFAGSIKYSVDSVKGRFTISRDNSKNTLFLQMNSLRAEDTAVYYCARDRLNYYDSSGYYHYKYYGMAVWGQGTTVTVSS VL: QSVLTQPPSVSAAPGQKVTISCSGSSSNIGNNYVSWYQQLPGTAPKLLIYDNNKRPSGIPDRFSGSKSGTSTTLGITGLQTGDEADYYCGTWDSRLSAVVFGGGTKLTVLG | ~5 | – | – | – | –
iPS:571017 (5604) anti-CGRP receptor/anti-PAC1 receptor bispecific hetero-immunoglobulin (bispecific antibody, human IgG1, kappa, lambda, N297G) light 1: QSVLTQPPSVSAAPGQKVTISCSGSYSNIGRYSVSWYQQLPGTAPKLLIYDNNKRPSGIPDRFSGSKSGTSATLGITGLQTGDEADYYCGTWDSRLSAVVFGGGTKLTVLGQPKAAPSVTLFPPSSEELQANKATLVCLISDFYPGAVTVAWKADSSPVKAGVETTTPSKQSNNKYAAKSYLSLTPEQWKSHRSYSCQVTHEGSTVEKTVAPTECS heavy 1: QVQLVESGGGVVQPGRSLRLSCAASGFTFSSFGMHWVRQAPGKGLEWVAVISFDGSIKYSVDSVKGRFTISRDNSKNTLFLQMNSLRAEDTAVYYCARDRLNYYESSGYYHYKYYGMAVWGQGTTVTVSSASTKGPSVFPLAPSSKSTSGGTAALGCLVKDYFPEPVTVSWNSGALTSGVHTFPAVLQSSGLYSLESVVTVPSSSLGTQTYICNVNHKPSNTKVDKKVEPKSCDKTHTCPPCPAPELLGGPSVFLFPPKPKDTLYITREPEVTCVVVDVSHEDPEVKFNWYVDGVEVHNAKTKPCEEQYGSTYRCVSVLTVLHQDWLNGKEYKCKVSNKALPAPIEKTISKAKGQPREPQVYTLPPSRKEMTKNQVSLTCLVKGFYPSDIAVEWESNGQPENNYKTTPPVLKSDGSFFLYSKLTVDKSRWQQGNVFSCSVMHEALHNHYTQKSLSLSPGK light 2: EIVLTQSPATLSLSPGERATLSCRASKSVGRSLHWYQQKPGQAPRLLIKYASQSLSGIPARFSGSGSGTDFTLTISSLEPEDFAVYYCHQSSRLPFTFGPGTKVDIKRTVAAPSVFIFPPSDEQLKSGTASVVCLLNNFYPREAKVQWKVDNALQSGNSQESVTEQDSKDSTYSLESTLTLSKADYEKHKVYACEVTHQGLSSPVTKSFNRGEC heavy 2: not shown | – | 4.8 | 0.86 | 1.3 | 0.45
iPS:571023 (5607) anti-CGRP receptor/anti-PAC1 receptor bispecific hetero-immunoglobulin (bispecific antibody, human IgG1, kappa, lambda, N297G) light 1: QSVLTQPPSVSAAPGQKVTISCSGSYSNIGRYSVSWYQQLPGTAPKLLIYDNNKRPSGIPDRFSGSKSGTSATLGITGLQTGDEADYYCGTWDSRLSAVVFGGGTKLTVLGQPKAAPSVTLFPPSSEELQANKATLVCLISDFYPGAVTVAWKADSSPVKAGVETTTPSKQSNNKYAAKSYLSLTPEQWKSHRSYSCQVTHEGSTVEKTVAPTECS heavy 1: QVQLVESGGGVVQPGRSLRLSCAASGFTFSSFGMHWVRQAPGKGLEWVAVISFDGSIKYSVDSVKGRFTISRDNSKNTLFLQMNSLRAEDTAVYYCARDRLNYYESSGYYHYKYYGMAVWGQGTTVTVSSASTKGPSVFPLAPSSKSTSGGTAALGCLVKDYFPEPVTVSWNSGALTSGVHTFPAVLQSSGLYSLESVVTVPSSSLGTQTYICNVNHKPSNTKVDKKVEPKSCDKTHTCPPCPAPELLGGPSVFLFPPKPKDTLMISRTPEVTCVVVDVSHEDPEVKFNWYVDGVEVHNAKTKPCEEQYGSTYRCVSVLTVLHQDWLNGKEYKCKVSNKALPAPIEKTISKAKGQPREPQVYTLPPSRKEMTKNQVSLTCLVKGFYPSDIAVEWESNGQPENNYKTTPPVLKSDGSFFLYSKLTVDKSRWQQGNVFSCSVMHEALHNHYTQKSLSLSPGK light 2: EIVLTQSPATLSLSPGERATLSCRASKSVGRSLHWYQQKPGQAPRLLIKYASQSLSGIPARFSGSGSGTDFTLTISSLEPEDFAVYYCHQSSRLPFTFGPGTKVDIKRTVAAPSVFIFPPSDEQLKSGTASVVCLLNNFYPREAKVQWKVDNALQSGNSQESVTEQDSKDSTYSLESTLTLSKADYEKHKVYACEVTHQGLSSPVTKSFNRGEC heavy 2: not shown | – | 4.4 | 0.88 | 0.9 | 0.63
iPS:571033 (5608) anti-CGRP receptor/anti-PAC1 receptor bispecific hetero-immunoglobulin (bispecific antibody, human IgG1, kappa, lambda, N297G) light 1: QSVLTQPPSVSAAPGQKVTISCSGSYSNIGRYSVSWYQQLPGTAPKLLIYDNNKRPSGIPDRFSGSKSGTSATLGITGLQTGDEADYYCGTWDSRLSAVVFGGGTKLTVLGQPKAAPSVTLFPPSSEELQANKATLVCLISDFYPGAVTVAWKADSSPVKAGVETTTPSKQSNNKYAAKSYLSLTPEQWKSHRSYSCQVTHEGSTVEKTVAPTECS heavy 1: QVQLVESGGGVVQPGRSLRLSCAASGFTFSSFGMHWVRQAPGKGLEWVAVISFDGSIKYSVDSVKGRFTISRDNSKNTLFLQMNSLRAEDTAVYYCARDRLNYYESSGYYHYKYYGMAVWGQGTTVTVSSASTKGPSVFPLAPSSKSTSGGTAALGCLVKDYFPEPVTVSWNSGALTSGVHTFPAVLQSSGLYSLESVVTVPSSSLGTQTYICNVNHKPSNTKVDKKVEPKSCDKTHTCPPCPAPELLGGPSVFLFPPKPKDTLMISRTPEVTCVVVDVSHEDPEVKFNWYVDGVEVHNAKTKPCEEQYGSTYRCVSVLTVLHQDWLNGKEYKCKVSNKALPAPIEKTISKAKGQPREPQVYTLPPSREKMTKNQVSLTCLVKGFYPSDIAVEWESNGQPENNYKTTPPVLKSDGSFFLYSKLTVDKSRWQQGNVFSCSVMHEALHNHYTQKSLSLSPGK light 2: EIVLTQSPATLSLSPGERATLSCRASKSVGRSLHWYQQKPGQAPRLLIKYASQSLSGIPARFSGSGSGTDFTLTISSLEPEDFAVYYCHQSSRLPFTFGPGTKVDIKRTVAAPSVFIFPPSDEQLKSGTASVVCLLNNFYPREAKVQWKVDNALQSGNSQESVTEQDSKDSTYSLESTLTLSKADYEKHKVYACEVTHQGLSSPVTKSFNRGEC heavy 2: not shown | – | 7.2 | 0.57 | 1.7 | 0.33
iPS:571025 (5605) anti-CGRP receptor/anti-PAC1 receptor bispecific hetero-immunoglobulin (bispecific antibody, human IgG1, kappa, lambda, N297G) light 1: QSVLTQPPSVSAAPGQKVTISCSGSYSNIGRYSVSWYQQLPGTAPKLLIYDNNKRPSGIPDRFSGSKSGTSATLGITGLQTGDEADYYCGTWDSRLSAVVFGGGTKLTVLGQPKAAPSVTLFPPSSEELQANKATLVCLISDFYPGAVTVAWKADSSPVKAGVETTTPSKQSNNKYAAKSYLSLTPEQWKSHRSYSCQVTHEGSTVEKTVAPTECS heavy 1: QVQLVESGGGVVQPGRSLRLSCAASGFTFSSFGMHWVRQAPGKGLEWVAVISFDGSIKYSVDSVKGRFTISRDNSKNTLFLQMNSLRAEDTAVYYCARDRLNYYESSGYYHYKYYGMAVWGQGTTVTVSSASTKGPSVFPLAPSSKSTSGGTAALGCLVKDYFPEPVTVSWNSGALTSGVHTFPAVLQSSGLYSLESVVTVPSSSLGTQTYICNVNHKPSNTKVDKKVEPKSCDKTHTCPPCPAPELLGGPSVFLFPPKPKDTLYITREPEVTCVVVDVSHEDPEVKFNWYVDGVEVHNAKTKPCEEQYGSTYRCVSVLTVLHQDWLNGKEYKCKVSNKALPAPIEKTISKAKGQPREPQVYTLPPSRKEMTKNQVSLTCLVKGFYPSDIAVEWESNGQPENNYKTTPPVLKSDGSFFLYSKLTVDKSRWQQGNVFSCSVMHEALHNHYTQKSLSLSPGK light 2: EIVLTQSPATLSLSPGERATLSCRASKSVGRSLHWYQQKPGQAPRLLIKYASQSLSGIPARFSGSGSGTDFTLTISSLEPEDFAVYYCHQSSRLPFTFGPGTKVDIKRTVAAPSVFIFPPSDEQLKSGTASVVCLLNNFYPREAKVQWKVDNALQSGNSQESVTEQDSKDSTYSLESTLTLSKADYEKHKVYACEVTHQGLSSPVTKSFNRGEC heavy 2: not shown | – | 3.1 | 1.34 | 0.9 | 0.6
iPS:571824 (5609) anti-CGRP receptor/anti-PAC1 receptor bispecific hetero-immunoglobulin (bispecific antibody, human IgG1, kappa, lambda, N297G) light 1: QSVLTQPPSVSAAPGQKVTISCSGSYSNIGRYSVSWYQQLPGTAPKLLIYDNNKRPSGIPDRFSGSKSGTSATLGITGLQTGDEADYYCGTWDSRLSAVVFGGGTKLTVLGQPKAAPSVTLFPPSSEELQANKATLVCLISDFYPGAVTVAWKADSSPVKAGVETTTPSKQSNNKYAAKSYLSLTPEQWKSHRSYSCQVTHEGSTVEKTVAPTECS heavy 1: QVQLVESGGGVVQPGRSLRLSCAASGFTFSSFGMHWVRQAPGKGLEWVAVISFDGSIKYSVDSVKGRFTISRDNSKNTLFLQMNSLRAEDTAVYYCARDRLNYYESSGYYHYKYYGMAVWGQGTTVTVSSASTKGPSVFPLAPSSKSTSGGTAALGCLVKDYFPEPVTVSWNSGALTSGVHTFPAVLQSSGLYSLESVVTVPSSSLGTQTYICNVNHKPSNTKVDKKVEPKSCDKTHTCPPCPAPELLGGPSVFLFPPKPKDTLYITREPEVTCVVVDVSHEDPEVKFNWYVDGVEVHNAKTKPCEEQYGSTYRCVSVLTVLHQDWLNGKEYKCKVSNKALPAPIEKTISKAKGQPREPQVYTLPPSREKMTKNQVSLTCLVKGFYPSDIAVEWESNGQPENNYKTTPPVLKSDGSFFLYSKLTVDKSRWQQGNVFSCSVMHEALHNHYTQKSLSLSPGK light 2: EIVLTQSPATLSLSPGERATLSCRASKSVGRSLHWYQQKPGQAPRLLIKYASQSLSGIPARFSGSGSGTDFTLTISSLEPEDFAVYYCHQSSRLPFTFGPGTKVDIKRTVAAPSVFIFPPSDEQLKSGTASVVCLLNNFYPREAKVQWKVDNALQSGNSQESVTEQDSKDSTYSLESTLTLSKADYEKHKVYACEVTHQGLSSPVTKSFNRGEC heavy 2: not shown | – | 6.6 | 0.62 | 1.5 | 0.38
